These results are taken from publication PMC4809639.

Holding throughout (experiment): split reporter
The target in data set [1] is T1, FGF14 (1b isoform), wild type, fused to split firefly luciferase fragments (UniProt Q92915).
T1 sequence: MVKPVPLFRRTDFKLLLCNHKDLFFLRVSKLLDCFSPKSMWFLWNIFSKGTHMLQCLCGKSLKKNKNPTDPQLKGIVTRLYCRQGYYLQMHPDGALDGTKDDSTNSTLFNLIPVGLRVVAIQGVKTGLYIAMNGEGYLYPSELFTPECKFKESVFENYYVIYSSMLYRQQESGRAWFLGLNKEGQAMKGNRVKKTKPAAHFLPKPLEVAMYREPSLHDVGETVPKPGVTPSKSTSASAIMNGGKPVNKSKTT

In data set [2] the target is FGF14^Y153N/V155N (1b isoform) fused to split firefly luciferase fragments.
Data set [3] concerns the target T1, FGF14 (1b isoform), wild type, fused to split firefly luciferase fragments. This is another data set of the same source.
Data set [4] deals with FGF14^Y153N/V155N (1b isoform) fused to split firefly luciferase fragments. The note with it: split reporter (BiFC, NanoBiT).

As to “FGF14^Y153N/V155N (1b isoform) fused to split firefly luciferase fragments (natural protein)”, the % maximal luminescence against the FGF14:FGF14 dimer was 109% in data set [1] and 136% in data set [2].

Take Ac-FLPK-NH2 [Ac-FLPK-NH2]: in data set [3], the % maximal luminescence of CLuc-FGF14:FGF14-NLuc left with 10 uM peptide came out at 75%. In data set [4], the “% maximal luminescence of the FGF14^Y153N/V155N:FGF14 heterodimer left with FLPK” value was determined as 90.8 ± 5.1%.
